Reference: publication PMC8666670, “Malonyl-acyl carrier protein decarboxylase activity promotes fatty acid and cell envelope biosynthesis in Proteobacteria” (The Journal of Biological Chemistry, 2021)

B1: acetyl-acyl carrier protein (acetyl-ACP) (natural protein, UniProt P0A6A8 1-78, looked up)
chain: MSTIEERVKKIIGEQLGVKQEEVTNNASFVEDLGADSLDTVELVMALEEEFDTEIPDEEAEKITTVQAAIDYINGHQA
modifications: prosthetic group with attached acetyl chain (acetyl thioester), made from apo-ACP and acetyl-CoA with [ACP]synthase
B2: MadA(M17A), malonyl-ACP decarboxylase (yiiD gene product) of E. coli (enzyme, UniProt P0ADQ2 1-329, looked up)
chain: MSQLPGLSRETRESIAAYHLRVPQTEEELERYYQFRWEMLRKPLHQPKGSERDAWDAMAHHQMVVDEQGNLVAVGRLYINADNEASIRFMAVHPDVQDKGLGTLMAMTLESVARQEGVKRVTCSAREDAVEFFAKLGFVNQGEITTPTTTPIRHFLMIKPVATLDDILHRGDWCAQLQQAWYEHIPLSEKMGVRIQQYTGQKFITTMPETGNQNPHHTLFAGSLFSLATLTGWGLIWLMLRERHLGGTIILADAHIRYSKPISGKPHAVADLGALSGDLDRLARGRKARVQMQVEIFGDETPGAVFEGTYIVLPAKPFGPYEEGGNEEE
notes: YiiD (MadA) of E. coli, amplified from Top10 genomic DNA, plasmid pPJ604 with M17A to remove a second start site; Cleavage of the His6 tag is reported only for ACP and MadA^C; MadA^C is said to end at residue 329, so the whole protein probably spans 1-329; also called MadA(M17A) mutant
B3: acyl carrier protein (ACP) (natural protein, UniProt P0A6A8 1-78, looked up)
chain: B1 chain
notes: acyl carrier protein; The ACP disulfide dimers seen in the sedimentation analysis imply that at least part of the preparation carries the phosphopantetheine thiol (holo-ACP)
B4: MadA^C, carboxy-terminal hot dog domain of E. coli MadA (domain or fragment, UniProt P0ADQ2 171-329, looked up)
chain: GDWCAQLQQAWYEHIPLSEKMGVRIQQYTGQKFITTMPETGNQNPHHTLFAGSLFSLATLTGWGLIWLMLRERHLGGTIILADAHIRYSKPISGKPHAVADLGALSGDLDRLARGRKARVQMQVEIFGDETPGAVFEGTYIVLPAKPFGPYEEGGNEEE
notes: MadA (YiiD) of E. coli, amino acids 171 to 329, amplified from Top10 genomic DNA

What was measured:
[1] = target: GlmU, glucosamine-1-phosphate N-acetyl transferase/N-acetyl-glucosamine-1-phosphate uridylyltransferase of E. … (E. coli, UniProt P0ACC7 1-456); test: cell-based or functional assay
GlmU, glucosamine-1-phosphate N-acetyl transferase/N-acetyl-glucosamine-1-phosphate uridylyltransferase of E. …, sequence (P0ACC7 whole entry): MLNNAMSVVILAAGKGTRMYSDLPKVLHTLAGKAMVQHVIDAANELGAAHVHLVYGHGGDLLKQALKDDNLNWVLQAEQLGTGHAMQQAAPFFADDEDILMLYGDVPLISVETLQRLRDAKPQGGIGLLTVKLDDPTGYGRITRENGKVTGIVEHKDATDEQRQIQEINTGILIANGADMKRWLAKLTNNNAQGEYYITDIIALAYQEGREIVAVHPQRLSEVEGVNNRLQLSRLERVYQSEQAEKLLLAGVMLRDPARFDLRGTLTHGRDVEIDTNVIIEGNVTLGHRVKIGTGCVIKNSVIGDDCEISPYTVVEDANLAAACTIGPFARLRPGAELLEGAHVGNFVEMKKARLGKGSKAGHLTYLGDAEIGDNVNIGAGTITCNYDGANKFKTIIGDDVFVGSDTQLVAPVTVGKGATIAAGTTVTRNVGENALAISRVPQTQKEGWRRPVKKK

[2] = target: the molecule itself; test: AUC; sedimentation analysis (methods: sedimentation velocity, 50,000 rpm, interference optics), 0.02 M Tris pH 7.5, 0.5 M NaCl, 20 °C, no reducing agents
[3] = target: B2; test: as above; conditions: both partners purified
[4] = target: the molecule itself; test: SEC; gel filtration chromatography of the purified recombinant protein

B1
apparent KM of the GlmU acetyltransferase half reaction for [^14C]acetyl-ACP (radiochemical TLC assay, 0–32 μM acetyl-ACP) [1]: 20 µM

B2
stoichiometry N [2]: 2

B3
stoichiometry N [3]: 2 ACP per MadA dimer

B4
stoichiometry N [4]: 2
